Reference: US20060140889A1
Changes are numbered by the printed parent chain. Each block holds one binder with its values, some of them ahead of it.

Columns and labels:
[1] = biological target: skin proteins; assay: ELISA on coated skin proteins, blocking Seablock, iMab (OD280 0.711) diluted 200 x, anti-VSV-HRP; background without iMab 0.131
[2] = biological target: skin proteins; assay: ELISA on coated skin proteins, blocking 0.5% BSA, iMab (OD280 0.711) diluted 200 x, anti-VSV-HRP; background without iMab 0.484
[3] = biological target: ELK (3% skim milk powder solution); assay: ELISA, control well with ELK only, ~50 ng iMab per well, anti-VSV-HRP; urea purification
[4] = biological target: ELK (3% skim milk powder solution); assay: ELISA, control well with ELK only, ~50 ng iMab per well, anti-VSV-HRP; purification by heat (60 C)
[5] = biological target: chicken lysozyme (chicken), P00698; assay: ELISA versus lysozyme, iMab dilution 1:1000, after precipitation with potassium acetate pH 4.8 and redissolving in PBS pH 7.5; conditions: remark: other sources report otherwise
Sequence of chicken lysozyme (chicken), P00698 (P00698 19-147 limits assumed): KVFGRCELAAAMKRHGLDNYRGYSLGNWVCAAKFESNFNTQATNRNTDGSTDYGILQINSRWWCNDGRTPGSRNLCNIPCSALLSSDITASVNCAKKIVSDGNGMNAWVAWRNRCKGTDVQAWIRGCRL

[6] = biological target: chicken lysozyme (chicken), P00698; assay: ELISA, well coated with lysozyme (100 ug/ml) and blocked with ELK, ~50 ng iMab per well, anti-VSV-HRP; urea purification; conditions: remark: other sources report otherwise
[7] = biological target: chicken lysozyme (chicken), P00698; assay: ELISA versus lysozyme, iMab dilution 1:100, before pH shock; conditions: remark: other sources report otherwise
[8] = biological target: chicken lysozyme (chicken), P00698; assay: ELISA versus lysozyme, iMab dilution 1:10,000, after precipitation with potassium acetate pH 4.8 and redissolving in PBS pH 7.5; conditions: remark: other sources report otherwise
[9] = biological target: chicken lysozyme (chicken), P00698; assay: ELISA versus lysozyme, iMab dilution 1:1000, before pH shock; conditions: remark: other sources report otherwise
[10] = biological target: chicken lysozyme (chicken), P00698; assay: ELISA versus lysozyme, iMab dilution 1:100, after precipitation with potassium acetate pH 4.8 and redissolving in PBS pH 7.5; conditions: remark: other sources report otherwise
[11] = biological target: chicken lysozyme (chicken), P00698; assay: ELISA versus lysozyme, iMab dilution 1:10,000, before pH shock; conditions: remark: other sources report otherwise
[12] = biological target: chicken lysozyme (chicken), P00698; assay: ELISA versus lysozyme, iMab dilution 1:10, before pH shock; conditions: remark: other sources report otherwise
[13] = biological target: chicken lysozyme (chicken), P00698; assay: ELISA, well coated with lysozyme (100 ug/ml) and blocked with ELK, ~50 ng iMab per well, anti-VSV-HRP; purification by heat (60 C); conditions: remark: other sources report otherwise
[14] = biological target: chicken lysozyme (chicken), P00698; assay: ELISA versus lysozyme, iMab dilution 1:10, after precipitation with potassium acetate pH 4.8 and redissolving in PBS pH 7.5; conditions: remark: other sources report otherwise
[15] = biological target: skin proteins; assay: ELISA on coated skin proteins, blocking 0.5% BSA, iMab (OD280 0.323) diluted 100 x, anti-VSV-HRP; background without iMab 0.484
[16] = biological target: hair proteins; assay: ELISA on coated hair proteins, blocking 0.5% BSA, iMab (OD280 4.22) diluted 100 x, anti-VSV-HRP; background without iMab 0.095
[17] = biological target: skin proteins; assay: ELISA on coated skin proteins, blocking Seablock, iMab (OD280 0.323) diluted 100 x, anti-VSV-HRP; background without iMab 0.131
[18] = biological target: skin proteins; assay: ELISA on coated skin proteins, blocking 0.5% BSA, iMab (OD280 0.828) diluted 250 x, anti-VSV-HRP; background without iMab 0.484
[19] = biological target: hair proteins; assay: ELISA on coated hair proteins, blocking 0.5% BSA, iMab (OD280 3.19) diluted 100 x, anti-VSV-HRP; background without iMab 0.095
[20] = biological target: skin proteins; assay: ELISA on coated skin proteins, blocking Seablock, iMab (OD280 0.828) diluted 250 x, anti-VSV-HRP; background without iMab 0.131
[21] = biological target: hair proteins; assay: ELISA on coated hair proteins, blocking 0.5% BSA, iMab (OD280 2.36) diluted 100 x, anti-VSV-HRP; background without iMab 0.095
[22] = biological target: bovine serum albumin (bovine) (UniProt P02769); assay: gel-shift, 2 mg/ml conjugate with 10 mg/ml BSA, 7.5% native PAA gel; Rf of the conjugate alone 0.66
Sequence of bovine serum albumin (bovine) (P02769 25-607 limits assumed): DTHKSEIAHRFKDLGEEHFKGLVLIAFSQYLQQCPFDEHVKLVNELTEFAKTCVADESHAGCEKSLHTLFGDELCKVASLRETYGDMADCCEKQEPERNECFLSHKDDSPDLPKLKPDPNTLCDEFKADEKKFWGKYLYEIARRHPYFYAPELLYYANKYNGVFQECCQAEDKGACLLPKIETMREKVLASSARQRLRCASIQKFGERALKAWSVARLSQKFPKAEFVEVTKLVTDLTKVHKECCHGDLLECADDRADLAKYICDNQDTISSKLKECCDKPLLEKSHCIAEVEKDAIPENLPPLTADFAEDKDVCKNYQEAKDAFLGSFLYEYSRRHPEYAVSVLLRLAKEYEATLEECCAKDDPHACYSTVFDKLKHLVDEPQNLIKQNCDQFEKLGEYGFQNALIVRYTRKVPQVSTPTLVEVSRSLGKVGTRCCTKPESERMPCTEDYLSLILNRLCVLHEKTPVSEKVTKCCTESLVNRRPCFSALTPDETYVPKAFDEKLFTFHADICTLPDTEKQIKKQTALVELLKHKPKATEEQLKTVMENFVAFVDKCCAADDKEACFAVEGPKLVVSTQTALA

[23] = biological target: bovine serum albumin (bovine) (UniProt P02769); assay: gel-shift, 0.1 mg/ml conjugate with 10 mg/ml BSA, 7.5% native PAA gel, in situ peroxidase activity; Rf of the conjugate alone 0.31
[24] = biological target: hair proteins; assay: ELISA on coated hair proteins, blocking 0.5% BSA, iMab (OD280 1.09) diluted 100 x, anti-VSV-HRP; background without iMab 0.095
[25] = biological target: skin proteins; assay: ELISA on coated skin proteins, blocking 0.5% BSA, iMab (OD280 0.399) diluted 100 x, anti-VSV-HRP; background without iMab 0.187
[26] = biological target: skin proteins; assay: ELISA on coated skin proteins, blocking Seablock, iMab (OD280 0.399) diluted 100 x, anti-VSV-HRP; background without iMab 0.084
[27] = biological target: skin proteins; assay: ELISA on coated skin proteins, blocking 0.5% BSA, iMab (OD280 0.327) diluted 100 x, anti-VSV-HRP; background without iMab 0.484
[28] = biological target: hair proteins; assay: ELISA on coated hair proteins, blocking 0.5% BSA, iMab (OD280 2.82) diluted 100 x, anti-VSV-HRP; background without iMab 0.095
[29] = biological target: skin proteins; assay: ELISA on coated skin proteins, blocking Seablock, iMab (OD280 0.327) diluted 100 x, anti-VSV-HRP; background without iMab 0.131
[30] = biological target: hair proteins; assay: ELISA on coated hair proteins, blocking 0.5% BSA, iMab (OD280 3.60) diluted 100 x, anti-VSV-HRP; background without iMab 0.095
[31] = biological target: skin proteins; assay: ELISA on coated skin proteins, blocking 0.5% BSA, iMab (OD280 0.585) diluted 200 x, anti-VSV-HRP; background without iMab 0.484
[32] = biological target: skin proteins; assay: ELISA on coated skin proteins, blocking Seablock, iMab (OD280 0.585) diluted 200 x, anti-VSV-HRP; background without iMab 0.131
[33] = biological target: skin proteins; assay: ELISA on coated skin proteins, blocking Seablock, iMab (OD280 0.357) diluted 100 x, anti-VSV-HRP; background without iMab 0.131
[34] = biological target: hair proteins; assay: ELISA on coated hair proteins, blocking 0.5% BSA, iMab (OD280 1.71) diluted 100 x, anti-VSV-HRP; background without iMab 0.095
[35] = biological target: skin proteins; assay: ELISA on coated skin proteins, blocking 0.5% BSA, iMab (OD280 0.357) diluted 100 x, anti-VSV-HRP; background without iMab 0.484

B2: iMab111 (designed binder)
chain: NVKLVCKGGNFVENDDDLKLTCRAEGYTIGPYCMGWFRQAPNDDSTNVATINMGGGITYYGDSVKERFDIRRDNASNTVTLSMDDLQPEDSAEYNCAGDSTIYASYYECGHGLSTGGYGYDSHYRCQGTDVTVSS
Absorbtion (450 nm) (absorbance at 450 nm) [3]: 0.043

B3: iMab116 (designed binder, not shown: small tags and cut ends)
chain: B2 chain with C6E, C96G, A104G, C126G
Absorbtion (450 nm) (absorbance at 450 nm) [3]: 0.042

B4: iMab100 (designed binder, not shown: small tags and cut ends)
chain: B2 chain with C6E, C126G
Absorbtion (450 nm) (absorbance at 450 nm) [4]: 0.041 | Signal on Elisa [5]: 0.169 | Absorbtion (450 nm) (absorbance at 450 nm) [6]: 0.494 | Signal on Elisa [7]: 0.228 | Signal on Elisa [8]: 0.059 | Signal on Elisa [9]: 0.128 | Signal on Elisa [10]: 0.263 | Absorbtion (450 nm) (absorbance at 450 nm) [3]: 0.04 | Signal on Elisa [11]: 0.059 | Signal on Elisa [12]: 0.36 | Absorbtion (450 nm) (absorbance at 450 nm) [13]: 0.369 | Signal on Elisa [14]: 0.39

B5: iMab143-xx-0030 (designed binder)
chain: MIKVYTDRENYGAVGSQVTLHCSASGYTIGPISFTWRYQPEGDRDAISIFHYNMGDGSIVIHNLDYSDNGSFTCAAVFAVVTVATKPDPRFYDYGNSSQVTLYVFEA
OD450 in Elisa [15]: 2.02 OD450 | OD450 in Elisa [16]: 0.262 OD450 | OD450 in Elisa [17]: 0.56 OD450

B6: iMab143-xx-0033 (designed binder)
chain: MIKVYTDRENYGAVGSQVTLHCSASGYTIGPISFTWRYQPEGDRDAISIFHYNMGDGSIVIHNLDYSDNGSFTCAADLHGLGLRRISTYEYGNSSQVTLYVFE
OD450 in Elisa [18]: 1.66 OD450 | OD450 in Elisa [19]: 0.442 OD450 | OD450 in Elisa [20]: 0.29 OD450

B10: iMab142-xx-0038 (designed binder)
chain: NVKLVEKGGNFVENDDDLKLTCRAEGYTIGPYSMGWFRQAPNDDSTNVSCINMGGGITYYGDSVKERFDIRRDNASNTVTLSMDDLQPEDSAEYNCATTLAPFGIATMYGPLNPAAFESRGQGTDVTVSS
OD450 in Elisa [24]: 2.35 OD450

B12: iMab143-xx-0031 (designed binder)
chain: MIKVYTDRENYGAVGSQVTLHCSASGYTIGPISFTWRYQPEGDRDAISIFHYNMGDGSIVIHNLDYSDNGSFTCAATTPFIDYDPNDICPSWYEYDYGNSSQVTLYVFE
OD450 in Elisa [27]: 2.62 OD450 | OD450 in Elisa [28]: 1.05 OD450 | OD450 in Elisa [29]: 2.88 OD450

B14: iMab122 (designed binder, not shown: small tags and cut ends)
chain: NVKLVEKGGNFVENDDDLKLTCRASGRTFSSRTMGWFRQAPNDDSTNVATIRWNGGSTYYTNYGDSVKERFDIRVDQASNTVTLSMDDLQPEDSAEYNCAGTDIGDGWSGRYDYRGQGTDVTVSS
Absorbtion (450 nm) (absorbance at 450 nm) [3]: 0.051

Further lines, results first:

OD450 in Elisa [1]: 1.79 OD450 | OD450 in Elisa [2]: 0.824 OD450
B1: iMab143-xx-0035 (designed binder)
chain: MIKVYTDRENYGAVGSQVTLHCSASGYTIGPISFTWRYQPEGDRDAISIFHYNMGDGSIVIHNLDYSDNGSFTCAAGADCSDYGIMYGMDYGNSSQVTLYVFE

OD450 in Elisa [21]: 1.32 OD450
B7: iMab142-xx-0039 (designed binder)
chain: NVKLVEKGGNFVENDDDLKLTCRAEGYTIGPYSMGWFRQAPNDDSTNVSCINMGGGITYYGDSVKERFDIRRDNASNTVTLSMDDLQPEDSAEYNCAADYGRCSWLIRAYNYRGQGTDVTVSS

retardation factor (Rf) [22]: 0.66
B8: TRITC labeled iMab142-xx-0002 (designed binder, not shown: small tags and cut ends)
chain: MNVKLVEKGGNFVENDDDLKLTCRAEGYTIGPYSMGWFRQAPNDDSTNVSCINMGGGITYYGDSVKERFDIRRDNASNTVTLSMDDLQPEDSAVYNCAADWWDGFTYGSTWYNPSSYDYRGQGTDVTVSS
modifications: TRITC covalently on primary amines, meaning the N-terminus and Lys side chains. Positions and number are not stated; labelled Lys is written K.

retardation factor (Rf) [23]: 0.31
B9: iMab142-xx-0002-HRP conjugate (protein, not shown: small tags and cut ends)
chain: B8 chain
modifications: Amines (N-terminus and Lys) were thiolated with SATA, deacetylated, and coupled by thioether to maleimide-activated horseradish peroxidase. The sites and the iMab:HRP ratio of the product are not stated.

OD450 in Elisa [25]: 0.306 OD450 | OD450 in Elisa [26]: 0.088 OD450
B11: iMab142-xx-0032 (designed binder)
chain: MNVKLVEKGGNFVENDDDLKLTCRAEGYTIGPYSMGWFRQAPNDDSTNVSCINMGGGITYYGDSVKERFDIRRDNASNTVTLSMDDLQPEDSAEYNCAATLAPFSIATMYGGLLDTAFDSRGQGTDVTVSS

OD450 in Elisa [30]: 0.203 OD450 | OD450 in Elisa [31]: 1.88 OD450 | OD450 in Elisa [32]: 0.212 OD450
B13: iMab143-xx-0029 (designed binder)
chain: MIKVYTDRENYGAVGSQVTLHCSASGYTIGPISFTWRYQPEGDRDAISIFHYNMGDGSIVIHNLDYSDNGSFTCAARFVDALYEPKSCTSRNYAYGNSSQVTLYVFE

OD450 in Elisa [33]: 0.699 OD450 | OD450 in Elisa [34]: 0.736 OD450 | OD450 in Elisa [35]: 2.23 OD450
B15: iMab143-xx-0034 (designed binder)
chain: MIKVYTDRENYGAVGSQVTLHCSASGYTIGPISFTWRYQPEGDRDAISIFHYNMGDGSIVIHNLDYSDNGSFTCAAYRIRSGGYYCFLTYLMDYGNSSQVTLYVFE
